B1: UBC-1POK(E239Y)-Linker7-HA-Linker3-Top7 (other)
chain: MIDYTAAGFTLLQGAHLYAPEDRGICDVLVANGKIIAVASNIPSDIVPNCTVVDLSGQILCPGFIDQHVHLIGGGGEAGPTTRTPEVALSRLTEAGVTSVVGLLGTDSISRHPESLLAKTRALNEEGISAWMLTGAYHVPSRTITGSVEKDVAIIDRVIGVKCAISDHRSAAPDVYHLANMAAESRVGGLLGGKPGVTVFHMGDSKKALQPIYDLLENCDVPISKLLPTHVNRNVPLFYQALEFARKGGTIDITSSIDEPVAPAEGIARAVQAGIPLARVTLSSDGNGSQPFFDDEGNLTHIGVAGFETLLETVQVLVKDYDFSISDALRPLTSSVAGFLNLTGKGEILPGNDADLLVMTPELRIEQVYARGKLMVKDGKACVKGTFETAGGSGGTGYPYDVPDYAGSGDIQVQVNIDDNGKNFDYTYTVTTESELQKVLNELKDYIKKQGAKRVRISITARTKKEAEKFAAILIKVFAELGYNDINVTWDGDTVTVEGQLE
B2: CMV-DHF40-Linker8-HA (other)
chain: MSSEKEELRERLVKICVELAKLKGDDTLKAAEAAEEAFRLVVLAAMLAGIDSSEVLELAIRLIKTCVVLAAMEGYDISEACRAAAEAFTRVAMAALRAGITSSLVLKAAIELIKECVLNAAVEGYDISEACRAAAEAFKRVAEAAKRAGITSLETLLRAIEEIRKRVEEAQREGNDISEACRQAAEEFRKKAEELKRRGDVGGSGGTGGYPYDVPDYA
B3: UBC-1POK(E239Y)-Linker12-gg-HA (other)
chain: MIDYTAAGFTLLQGAHLYAPEDRGICDVLVANGKIIAVASNIPSDIVPNCTVVDLSGQILCPGFIDQHVHLIGGGGEAGPTTRTPEVALSRLTEAGVTSVVGLLGTDSISRHPESLLAKTRALNEEGISAWMLTGAYHVPSRTITGSVEKDVAIIDRVIGVKCAISDHRSAAPDVYHLANMAAESRVGGLLGGKPGVTVFHMGDSKKALQPIYDLLENCDVPISKLLPTHVNRNVPLFYQALEFARKGGTIDITSSIDEPVAPAEGIARAVQAGIPLARVTLSSDGNGSQPFFDDEGNLTHIGVAGFETLLETVQVLVKDYDFSISDALRPLTSSVAGFLNLTGKGEILPGNDADLLVMTPELRIEQVYARGKLMVKDGKACVKGTFETAGGSGGTGGSGGTGGYPYDVPDYA
B4: UBC-1POK(E239Y)-Linker25-HA-gsg-Top7 (other)
chain: MIDYTAAGFTLLQGAHLYAPEDRGICDVLVANGKIIAVASNIPSDIVPNCTVVDLSGQILCPGFIDQHVHLIGGGGEAGPTTRTPEVALSRLTEAGVTSVVGLLGTDSISRHPESLLAKTRALNEEGISAWMLTGAYHVPSRTITGSVEKDVAIIDRVIGVKCAISDHRSAAPDVYHLANMAAESRVGGLLGGKPGVTVFHMGDSKKALQPIYDLLENCDVPISKLLPTHVNRNVPLFYQALEFARKGGTIDITSSIDEPVAPAEGIARAVQAGIPLARVTLSSDGNGSQPFFDDEGNLTHIGVAGFETLLETVQVLVKDYDFSISDALRPLTSSVAGFLNLTGKGEILPGNDADLLVMTPELRIEQVYARGKLMVKDGKACVKGTFETAGGSGGTGGSGGTGGSGGTGGSGGTGYPYDVPDYAGSGDIQVQVNIDDNGKNFDYTYTVTTESELQKVLNELKDYIKKQGAKRVRISITARTKKEAEKFAAILIKVFAELGYNDINVTWDGDTVTVEGQLE
B5: CMV-1POK(E239Y)-Linker8-HA (other)
chain: MIDYTAAGFTLLQGAHLYAPEDRGICDVLVANGKIIAVASNIPSDIVPNCTVVDLSGQILCPGFIDQHVHLIGGGGEAGPTTRTPEVALSRLTEAGVTSVVGLLGTDSISRHPESLLAKTRALNEEGISAWMLTGAYHVPSRTITGSVEKDVAIIDRVIGVKCAISDHRSAAPDVYHLANMAAESRVGGLLGGKPGVTVFHMGDSKKALQPIYDLLENCDVPISKLLPTHVNRNVPLFYQALEFARKGGTIDITSSIDEPVAPAEGIARAVQAGIPLARVTLSSDGNGSQPFFDDEGNLTHIGVAGFETLLETVQVLVKDYDFSISDALRPLTSSVAGFLNLTGKGEILPGNDADLLVMTPELRIEQVYARGKLMVKDGKACVKGTFETAGGSGGTGGYPYDVPDYA

Target: the molecule itself
Experiment: self-assembly in cultured mouse hippocampal neurons; anti-HA immunofluorescence, confocal

Row | Protein | binding result
1 | B1 | binds
2 | B2 | binds
3 | B3 | binds
4 | B4 | binds
5 | B5 | binds
